The source of these data is patent publication US20020193571A1 (published 2002).

The target in the assay is T1, human WSX receptor (hWSXR), antigen of the phage antigen-binding ELISA (human, UniProt P48357 22-841).
T1 construct: both panning antigens hold the ECD; also called huWSXR
T1 sequence: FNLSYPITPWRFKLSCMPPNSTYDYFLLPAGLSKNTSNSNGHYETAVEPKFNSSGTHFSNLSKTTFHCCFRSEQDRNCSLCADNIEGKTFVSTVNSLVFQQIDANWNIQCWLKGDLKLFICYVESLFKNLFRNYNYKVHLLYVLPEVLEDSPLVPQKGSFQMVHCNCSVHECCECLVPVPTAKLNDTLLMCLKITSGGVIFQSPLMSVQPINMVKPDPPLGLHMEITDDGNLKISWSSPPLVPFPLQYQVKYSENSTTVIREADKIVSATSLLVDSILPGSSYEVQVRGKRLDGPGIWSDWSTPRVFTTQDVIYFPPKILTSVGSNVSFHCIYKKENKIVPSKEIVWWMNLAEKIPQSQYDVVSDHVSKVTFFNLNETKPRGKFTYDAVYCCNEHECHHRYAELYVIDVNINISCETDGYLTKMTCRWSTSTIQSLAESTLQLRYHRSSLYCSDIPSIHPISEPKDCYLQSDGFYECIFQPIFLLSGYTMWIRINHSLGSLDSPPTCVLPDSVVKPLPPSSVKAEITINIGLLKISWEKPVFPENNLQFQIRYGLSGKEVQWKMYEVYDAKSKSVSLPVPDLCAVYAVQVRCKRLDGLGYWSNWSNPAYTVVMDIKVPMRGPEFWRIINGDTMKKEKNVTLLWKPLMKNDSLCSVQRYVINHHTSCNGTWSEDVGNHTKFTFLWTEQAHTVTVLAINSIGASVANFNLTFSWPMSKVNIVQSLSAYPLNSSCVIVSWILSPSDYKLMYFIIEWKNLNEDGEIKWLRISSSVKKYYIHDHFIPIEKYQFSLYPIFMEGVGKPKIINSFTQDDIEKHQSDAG
As to the kind of experiment: phage antigen-binding ELISA.

B1: agonist antibody clone #3 scFv (scFv)
scFv: EVQLVQSGAEVKKPGASVKVSCKASGYTFTGYYMYWVRQAPGQGLEWMGWINPNSGGTNYAQKFQGRVTMTRDTSIGTAYMELSRLSSDDTAVYYCARDRYYGSSAYHRGSYYMDVWGRGTLVTVSSGGGGTGGGGSGGGGSSELTQDPAVSVALGQTVRITCQGDSLRSYYASWYQQKPGQAPVLVIYGKNNRPSGIPDRFSGSSSGNTASLTITGAQAEDEADYYCNSRDSSGNHVVFGGGTKLTVL
notes: Human scFv from a phage library
In the case of B1, the binding result is “binds”.

B2: agonist antibody clone #17 scFv (scFv)
scFv: QVRLQQSGGGLVQPGRSLRLSCAASGFTFDDYAMHWVRQAPGKGLEWVSGMTWNSGSIGYADSVKGRFTISRDNAKNSLYLQMNSLRAEDTAVYYCAREPHNTDAFDIWGRGTLVTVSSGGGGPGGGGSGGGGSDVVMTQSPSFLSAFVGDTITITCRASQGIYNYLAWYQQKPGKAPKLLIYAASTLQSGVPSRFSGSGSGTEFTLTISSLQPEDFGTYYCQQLISYPLTFGGGTKVEIK
notes: Human scFv from a phage library; tested as scFv phage and as soluble scFv
Take B2: the binding result is reported as “binds”.
